One test addresses ^CFPCul1–Rbx1 (UniProt Q13616 1-776; P62877 1-108). Description: FRET or BRET. (Bioluminescence resonance energy transfer reports proximity on the nanometre scale.)
The target of the next test is GST-Rbx1–Cul1 (UniProt P62877 1-108; Q13616 1-776). The experiment in a line: pull-down.

Kd and koff data for two molecules are collected here from PMC3656483 (Cell, 2013).

What is called Kd is the free concentration of one partner at which half of the binding sites on the other are occupied at equilibrium, for simple one-to-one binding. Read a high Kd as lower affinity. For orientation: koff means the rate constant with which the complex falls apart. Lower therefore signals a long-lived complex.

^CFPCul1–Rbx1, sequence (Q13616 whole entry, chain 1 of 2): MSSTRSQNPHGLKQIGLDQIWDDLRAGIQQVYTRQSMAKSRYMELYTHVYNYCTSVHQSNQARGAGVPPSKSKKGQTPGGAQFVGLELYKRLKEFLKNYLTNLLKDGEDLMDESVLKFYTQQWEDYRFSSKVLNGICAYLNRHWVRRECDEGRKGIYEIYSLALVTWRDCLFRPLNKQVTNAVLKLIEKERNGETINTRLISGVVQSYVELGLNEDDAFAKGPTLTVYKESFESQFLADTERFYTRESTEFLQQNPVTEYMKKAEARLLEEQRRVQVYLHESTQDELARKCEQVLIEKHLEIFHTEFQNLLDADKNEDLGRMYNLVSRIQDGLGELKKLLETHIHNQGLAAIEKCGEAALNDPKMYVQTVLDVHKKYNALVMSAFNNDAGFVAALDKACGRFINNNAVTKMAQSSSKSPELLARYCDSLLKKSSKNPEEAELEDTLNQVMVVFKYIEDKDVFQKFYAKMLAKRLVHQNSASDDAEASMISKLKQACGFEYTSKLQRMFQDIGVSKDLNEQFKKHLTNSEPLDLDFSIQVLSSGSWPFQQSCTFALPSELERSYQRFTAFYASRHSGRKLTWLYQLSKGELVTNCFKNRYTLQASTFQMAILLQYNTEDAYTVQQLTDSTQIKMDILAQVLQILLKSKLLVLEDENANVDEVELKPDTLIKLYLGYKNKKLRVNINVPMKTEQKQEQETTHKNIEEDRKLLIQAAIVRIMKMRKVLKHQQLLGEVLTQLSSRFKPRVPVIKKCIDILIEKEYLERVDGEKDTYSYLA
^CFPCul1–Rbx1, sequence (P62877 whole entry, chain 2 of 2): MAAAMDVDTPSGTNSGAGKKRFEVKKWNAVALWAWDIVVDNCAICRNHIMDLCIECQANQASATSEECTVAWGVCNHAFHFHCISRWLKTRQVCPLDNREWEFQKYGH
GST-Rbx1–Cul1, sequence (P62877 whole entry, chain 1 of 2): as the sequence (P62877 whole entry, chain 2 of 2) above
GST-Rbx1–Cul1, sequence (Q13616 whole entry, chain 2 of 2): as the sequence (Q13616 whole entry, chain 1 of 2) above

B1: Cullin-associated and neddylation-dissociated protein 1 (Cand1) (natural protein, UniProt Q86VP6 1-1230, looked up)
chain: MASASYHISNLLEKMTSSDKDFRFMATNDLMTELQKDSIKLDDDSERKVVKMILKLLEDKNGEVQNLAVKCLGPLVSKVKEYQVETIVDTLCTNMLSDKEQLRDISSIGLKTVIGELPPASSGSALAANVCKKITGRLTSAIAKQEDVSVQLEALDIMADMLSRQGGLLVNFHPSILTCLLPQLTSPRLAVRKRTIIALGHLVMSCGNIVFVDLIEHLLSELSKNDSMSTTRTYIQCIAAISRQAGHRIGEYLEKIIPLVVKFCNVDDDELREYCIQAFESFVRRCPKEVYPHVSTIINICLKYLTYDPNYNYDDEDEDENAMDADGGDDDDQGSDDEYSDDDDMSWKVRRAAAKCLDAVVSTRHEMLPEFYKTVSPALISRFKEREENVKADVFHAYLSLLKQTRPVQSWLCDPDAMEQGETPLTMLQSQVPNIVKALHKQMKEKSVKTRQCCFNMLTELVNVLPGALTQHIPVLVPGIIFSLNDKSSSSNLKIDALSCLYVILCNHSPQVFHPHVQALVPPVVACVGDPFYKITSEALLVTQQLVKVIRPLDQPSSFDATPYIKDLFTCTIKRLKAADIDQEVKERAISCMGQIICNLGDNLGSDLPNTLQIFLERLKNEITRLTTVKALTLIAGSPLKIDLRPVLGEGVPILASFLRKNQRALKLGTLSALDILIKNYSDSLTAAMIDAVLDELPPLISESDMHVSQMAISFLTTLAKVYPSSLSKISGSILNELIGLVRSPLLQGGALSAMLDFFQALVVTGTNNLGYMDLLRMLTGPVYSQSTALTHKQSYYSIAKCVAALTRACPKEGPAVVGQFIQDVKNSRSTDSIRLLALLSLGEVGHHIDLSGQLELKSVILEAFSSPSEEVKSAASYALGSISVGNLPEYLPFVLQEITSQPKRQYLLLHSLKEIISSASVVGLKPYVENIWALLLKHCECAEEGTRNVVAECLGKLTLIDPETLLPRLKGYLISGSSYARSSVVTAVKFTISDHPQPIDPLLKNCIGDFLKTLEDPDLNVRRVALVTFNSAAHNKPSLIRDLLDTVLPHLYNETKVRKELIREVEMGPFKHTVDDGLDIRKAAFECMYTLLDSCLDRLDIFEFLNHVEDGLKDHYDIKMLTFLMLVRLSTLCPSAVLQRLDRLVEPLRATCTTKVKANSVKQEFEKQDELKRSAMRAVAALLTIPEAEKSPLMSEFQSQISSNPELAAIFESIQKDSSSTNLESMDTS
Turning to B1, the Kd in the test with ^CFPCul1–Rbx1 is at most 53 nM.

B2: Cand1^TAMRA (natural protein, UniProt Q86VP6 1-1230, looked up)
chain: B1 chain
modifications: TAMRA (site not stated)
In the test with GST-Rbx1–Cul1, B2 had a koff of 1.2e-05 s⁻¹.
